# Laboratory results taken from patent US20180057604A1 (Genentech, published 2018).
# Numbering of substitutions follows the chain as printed.
# B1: 6307 (antibody, V domains shown)
# VH: QLQLQESGPGLVKPSETLSLTCTVSGGSISWSSYYWSWIRQPPGKGLEWIGSIYRSGRTYYNPSLKGRVTISVDTSKNQFSLKLSSVTAADTAVYYCARVGHGINYFDLWGRGTLVTVSS
# VL: EIVLTQSPATLSLSPGERATLSCRASQSVSSYLAWYQQKPGQAPRLLIYDASNRATGIPARFSGSGSGTDFTLTISSLEPEDFAVYYCQQSIVWPPRTFGGGTKVEIK
# notes: anti-BACE1 IgG
# B2: 6305 (antibody, V domains shown)
# VH: QVQLVQSGAEVKKPGSSVKVSCKASGGTLSGYAISWVRQAPGQGLEWMGNIIPGFGTANYAQKSQGRVTITADESTSTAYMELSSLRSEDTAVYYCARSGGTRYGMLDVWGQGTMVTVSS
# VL: B1 VL with L13V, S30G, Y32N, D50G, N53T, D70E, E79Q, P80S, I92F
# notes: anti-BACE1 IgG
# B3: 16F6 (antibody, V domains shown)
# VH: DVQLQESGPGLVKPSQSLSLTCTVTGNSITSEYAWNWIRQFPGNKLEWMGYISYSGTTSYNPSLKSRISITRDTSKNQLFLQLNSVTTEDTATYFCARYGYGNPATRYFDVWGAGTTVTVSS
# VL: DVQITQSPSYLTASPGETITINCRASKSISKYLAWYQEKPGKTNKLLIYSGSTLQSGIPSRFSGSGSGTDFTLTISNLEPEDFAMYYCQQHNEYPWTFGGGTKLEIK
# notes: Mouse hybridoma antibody; also called clone 16F6
# B4: 5897 (antibody, V domains shown)
# VH: B1 VH with R55K, G67S, N105S
# VL: B1 VL with I92L, V93T
# notes: anti-BACE1 IgG
# B5: 5888 (antibody, V domains shown)
# VH: B2 VH with L29F, S30W, G31K, S64F, Q65R, R103K
# VL: B1 VL with L4M, L13V, Y32N, D50G, N53T, D70E, E79Q, P80S, S91L, V93L
# notes: anti-BACE1 IgG
# B6: 5893 (antibody, V domains shown)
# VH: B2 VH with L29F, S30R, S64F, R103K
# VL: EIVMTQSPATLSVSPGERATLSCRASQSVGSNLAWYQQKPGQAPRLLIYGASTRATGIPARFSGSGSGTEFTLTISSLQSEDFAVYYCQQLYTWPPRTFGGGTKVEIK
# notes: anti-BACE1 IgG
# B7: 5890 (antibody, V domains shown)
# VH: B2 VH with L29F, G31S, S64F, R103K
# VL: B6 VL
# notes: anti-BACE1 IgG
# B8: 5892 (antibody, V domains shown)
# VH: B2 VH with L29F, G31S, G54I, N59T, S64F, R103K
# VL: B6 VL
# notes: anti-BACE1 IgG
# B9: 5930 (antibody, V domains shown)
# VH: B2 VH
# VL: B6 VL
# notes: anti-BACE1 IgG
# B10: 5891 (antibody, V domains shown)
# VH: B2 VH with L29F, G31S, G54I, T57P, S64F, R103K
# VL: B6 VL
# notes: anti-BACE1 IgG
# B11: 15G11 (antibody, V domains shown)
# VH: QVQLQQPGAELVKPGASVKLSCKASGYTFTSYWMHWVKQRPGQGLEWIGEINPTNGRTNYIEKFKSKATLTVDKSSSTAYMQLSSLTSEDSAVYYCARGTRAYHYWGQGTSVTVSS
# VL: DIQMTQSPASLSVSVGETVTITCRASDNLYSNLAWYQQKQGKSPQLLVYDATNLADGVPSRFSGSGSGTQYSLKINSLQSEDFGTYYCQHFWGTPLTFGAGTKLELK
# notes: Mouse hybridoma antibody; also called clone 15G11
# B12: 7A4 (antibody, V domains shown)
# VH: QVQLQQSGPELVRPGVSVKISCKGSGYTFTDYAMHWVKQSHAKSLEWIGGISTYFGRTNYNQKFKGRATMTVDKSSSTAYMELARLTSEDSALYYCARGLSGNYVMDYWGQGTSVTVSS
# VL: DIVLTQSPASLAVSLGQRATISCRASESVDDYGNSFMHWYQQKPGQPPKLLIYRASNLESGIPARFSGSGSRTDFTLTINPVEADDVATYYCQQSNEAPPTFGGGTKLEIR
# notes: also called clone 7A4
# B13: 7A4 HC/8A2 LC (antibody, V domains shown)
# VH: B12 VH
# VL: B12 VL with D31S, A98G, R111K
# notes: chimeric IgG; also called ch7A4/8A2
# Target: T1, murine BACE1 ECD
# T1 construct: analyte of the Octet assay (200 nM) and enzyme of the first short substrate assay
# T1 sequence (single chain, as listed by the source limits assumed): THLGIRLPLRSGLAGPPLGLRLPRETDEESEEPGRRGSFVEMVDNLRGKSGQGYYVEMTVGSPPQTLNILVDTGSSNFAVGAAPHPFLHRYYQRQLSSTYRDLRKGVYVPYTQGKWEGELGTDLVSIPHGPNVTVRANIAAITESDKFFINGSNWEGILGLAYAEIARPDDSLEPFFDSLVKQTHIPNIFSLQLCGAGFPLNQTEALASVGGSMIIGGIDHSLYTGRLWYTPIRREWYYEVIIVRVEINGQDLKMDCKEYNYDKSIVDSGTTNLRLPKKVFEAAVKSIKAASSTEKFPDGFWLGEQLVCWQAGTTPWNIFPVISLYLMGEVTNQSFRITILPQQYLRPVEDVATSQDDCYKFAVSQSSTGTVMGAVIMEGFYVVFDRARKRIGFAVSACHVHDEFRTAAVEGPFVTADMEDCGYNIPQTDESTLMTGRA
# Assay: Octet, pH 7.5
row,Binder,Kd [nM]
1,B1,< 0.15
2,B2,0.56

# Target: T2, human BACE1 ECD
# T2 construct: analyte of the Octet assay (200 nM) and enzyme of the first short substrate assay; also called human BACE1 extracellular domain
# T2 sequence (single chain, as listed by the source limits assumed): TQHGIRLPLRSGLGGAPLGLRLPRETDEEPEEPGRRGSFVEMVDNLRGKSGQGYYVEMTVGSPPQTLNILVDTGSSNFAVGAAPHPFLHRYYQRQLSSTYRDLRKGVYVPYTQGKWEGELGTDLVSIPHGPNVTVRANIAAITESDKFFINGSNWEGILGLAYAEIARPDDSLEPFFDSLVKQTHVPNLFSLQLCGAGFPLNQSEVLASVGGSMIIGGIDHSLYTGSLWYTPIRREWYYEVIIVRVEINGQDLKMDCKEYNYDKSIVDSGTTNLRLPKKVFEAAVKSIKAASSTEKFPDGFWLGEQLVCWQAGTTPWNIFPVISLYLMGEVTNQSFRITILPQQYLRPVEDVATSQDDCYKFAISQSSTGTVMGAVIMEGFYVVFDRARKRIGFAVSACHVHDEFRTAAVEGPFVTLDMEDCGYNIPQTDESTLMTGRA
# Assay: Octet, pH 7.5
row,Binder,Kd [nM]
1,B1,< 0.14
2,B2,0.53

# Target: T3, human TfR extracellular domain with N-terminal His tag (human, UniProt P02786 89-760)
# T3 construct: Biotinylated in some assays; also called huTfR; HuTfR
# T3 sequence (P02786 89-760 G142S): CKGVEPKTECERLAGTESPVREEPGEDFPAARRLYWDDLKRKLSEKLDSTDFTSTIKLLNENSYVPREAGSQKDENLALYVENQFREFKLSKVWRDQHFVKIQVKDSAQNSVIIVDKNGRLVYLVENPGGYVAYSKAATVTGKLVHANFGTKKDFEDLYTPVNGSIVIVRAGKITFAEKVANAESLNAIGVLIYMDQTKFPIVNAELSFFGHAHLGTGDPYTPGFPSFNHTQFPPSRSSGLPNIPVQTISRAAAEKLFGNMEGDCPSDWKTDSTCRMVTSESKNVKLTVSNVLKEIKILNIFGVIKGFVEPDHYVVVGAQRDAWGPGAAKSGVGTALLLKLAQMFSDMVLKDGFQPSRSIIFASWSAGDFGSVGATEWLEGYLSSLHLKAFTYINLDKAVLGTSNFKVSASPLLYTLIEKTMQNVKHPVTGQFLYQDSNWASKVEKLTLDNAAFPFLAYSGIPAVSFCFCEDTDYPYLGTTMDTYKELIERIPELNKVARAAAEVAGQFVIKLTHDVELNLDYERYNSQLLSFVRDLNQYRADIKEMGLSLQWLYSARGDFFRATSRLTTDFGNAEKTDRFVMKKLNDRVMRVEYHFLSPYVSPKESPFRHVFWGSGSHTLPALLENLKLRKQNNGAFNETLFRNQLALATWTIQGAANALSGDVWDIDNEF
# Assay: SPR, IgG
row,Binder,Kd [nM]
1,B3,2.07

# Target: T4, cyno TfR extracellular domain (analogous construct to human TfR ecd) (cynomolgus monkey, UniProt Q5RDH6 87-760 (Pongo abelii entry))
# T4 construct: also called cynoTfR ecd
# T4 chain: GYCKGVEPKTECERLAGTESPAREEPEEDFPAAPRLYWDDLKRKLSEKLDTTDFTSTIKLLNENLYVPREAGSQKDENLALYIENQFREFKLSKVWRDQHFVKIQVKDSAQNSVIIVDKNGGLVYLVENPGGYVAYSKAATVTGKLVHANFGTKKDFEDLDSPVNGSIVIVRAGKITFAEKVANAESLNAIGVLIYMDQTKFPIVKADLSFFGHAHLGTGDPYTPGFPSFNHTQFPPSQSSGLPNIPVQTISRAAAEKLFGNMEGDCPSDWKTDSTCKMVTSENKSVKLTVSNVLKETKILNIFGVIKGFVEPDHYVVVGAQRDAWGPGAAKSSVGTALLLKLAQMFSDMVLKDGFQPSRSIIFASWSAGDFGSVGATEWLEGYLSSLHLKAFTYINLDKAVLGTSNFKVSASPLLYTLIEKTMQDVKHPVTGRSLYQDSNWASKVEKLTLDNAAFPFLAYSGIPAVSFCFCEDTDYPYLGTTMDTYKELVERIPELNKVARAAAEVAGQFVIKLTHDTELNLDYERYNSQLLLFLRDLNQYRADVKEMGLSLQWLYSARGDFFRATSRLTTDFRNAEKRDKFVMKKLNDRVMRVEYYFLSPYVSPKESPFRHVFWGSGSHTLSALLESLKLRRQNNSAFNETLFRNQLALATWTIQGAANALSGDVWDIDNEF
# Assay: SPR, IgG
row,Binder,Kd [nM]
1,B3,7.45

# Target: T1, murine BACE1 ECD
# Assay: Octet, pH 7.5
# Remark: another data set of the same source
row,Binder,Kd [nM]
1,B4,1.1
2,B5,1.4
3,B6,0.98
4,B7,1
5,B8,1.3
6,B9,< 0.3
7,B10,1.4

# Target: T2, human BACE1 ECD
# Assay: Octet, pH 7.5
# Remark: another data set of the same source
row,Binder,Kd [nM]
1,B4,0.95
2,B5,0.86
3,B6,0.33
4,B7,0.55
5,B8,0.88
6,B9,< 0.29
7,B10,0.65

# Target: T3, human TfR extracellular domain with …
# Assay: SPR, IgG
# Remark: another data set of the same source
row,Binder,Kd [nM]
1,B11,0.992
2,B12,0.206
3,B13,0.112

# Target: T4, cyno TfR extracellular domain …
# Assay: SPR, IgG
# Remark: another data set of the same source
row,Binder,Kd [nM]
1,B11,2.6
2,B12,0.627
3,B13,0.925

# Target: T5, BACE1 in primary mouse cortical neurons (mouse, UniProt P56818 46-501)
# T5 sequence (P56818 46-501): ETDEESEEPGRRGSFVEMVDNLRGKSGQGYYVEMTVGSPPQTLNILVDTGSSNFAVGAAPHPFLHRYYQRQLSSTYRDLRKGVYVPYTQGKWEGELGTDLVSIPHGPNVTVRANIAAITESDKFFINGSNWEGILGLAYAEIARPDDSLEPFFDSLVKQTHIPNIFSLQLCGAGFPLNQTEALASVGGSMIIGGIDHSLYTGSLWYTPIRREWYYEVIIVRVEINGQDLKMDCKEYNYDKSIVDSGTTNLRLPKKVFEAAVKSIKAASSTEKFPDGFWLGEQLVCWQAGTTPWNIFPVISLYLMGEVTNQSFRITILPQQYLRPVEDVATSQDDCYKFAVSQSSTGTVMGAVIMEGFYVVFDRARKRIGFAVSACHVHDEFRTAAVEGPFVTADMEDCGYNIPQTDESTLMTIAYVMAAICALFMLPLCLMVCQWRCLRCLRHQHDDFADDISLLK
# Assay: cell-based or functional assay
Binder,"IC50, Abeta x-40 in mouse cortical neurons [nM]",maximal % inhibition of Abeta x-40 [%]
B9,7.52,74

# Target: BACE1 (HTRF long substrate and FRET short substrate assays of Example 9D)
# Assay: cell-based or functional assay
Binder,"EC50, FRET short substrate [nM]","EC50, HTRF long substrate [nM]"
B4,0.528,1.39
B5,0.602,2.5
B6,8.84,3.59
B7,32.4,4.06
B8,16.4,1.19
B10,12.4,3.03

# Target: T1, murine BACE1 ECD
# Assay: cell-based or functional assay
row,Binder,"% inhibition of BACE1 activity, short FRET substrate [%]"
1,B4,-3
2,B5,-183
3,B6,69
4,B7,69
5,B8,64
6,B10,70

# Target: T2, human BACE1 ECD
# Assay: cell-based or functional assay
row,Binder,"% inhibition of BACE1 activity, short FRET substrate [%]"
1,B4,1
2,B5,-86
3,B6,72
4,B7,66
5,B8,64
6,B10,71

# Target: T5, BACE1 in primary mouse cortical neurons
# Assay: cell-based or functional assay
# Remark: another data set of the same source
Binder,"IC50, Abeta x-40 in mouse cortical neurons [nM]",maximal % inhibition of Abeta x-40 [%]
B4,0.3,62
B5,1.79,82
B6,9.46,73
B7,8.45,77
B8,9.52,73
B10,18,78

# Target: T1, murine BACE1 ECD
# Assay: Octet, pH 5.0
row,Binder,Kd [nM]
1,B1,< 0.17
2,B2,1.6

# Target: T2, human BACE1 ECD
# Assay: Octet, pH 5.0
row,Binder,Kd [nM]
1,B1,< 0.13
2,B2,0.96

# Target: T5, BACE1 in primary mouse cortical neurons
# Assay: cell-based or functional assay
# Remark: another data set of the same source
Binder,"IC50, Abeta x-40 in mouse cortical neurons [nM]",maximal % inhibition of Abeta x-40 [%]
B1,0.45,68
B2,9.69,67

# Target: T3, human TfR extracellular domain with …
# Assay: SPR, IgG
# Remark: another data set of the same source
row,Binder,Kd [nM]
1,B3,2.07
2,B11,0.992
3,B12,0.206
4,B13,0.112

# Target: T4, cyno TfR extracellular domain …
# Assay: SPR, IgG
# Remark: another data set of the same source
row,Binder,Kd [nM]
1,B3,7.45
2,B11,2.6
3,B12,0.627
4,B13,0.925

# Target: T6, human BACE1 (R&D Systems) (human, UniProt P56817)
# T6 construct: recombinant, commercial (R&D Systems)
# T6 sequence (P56817 22-457 limits assumed): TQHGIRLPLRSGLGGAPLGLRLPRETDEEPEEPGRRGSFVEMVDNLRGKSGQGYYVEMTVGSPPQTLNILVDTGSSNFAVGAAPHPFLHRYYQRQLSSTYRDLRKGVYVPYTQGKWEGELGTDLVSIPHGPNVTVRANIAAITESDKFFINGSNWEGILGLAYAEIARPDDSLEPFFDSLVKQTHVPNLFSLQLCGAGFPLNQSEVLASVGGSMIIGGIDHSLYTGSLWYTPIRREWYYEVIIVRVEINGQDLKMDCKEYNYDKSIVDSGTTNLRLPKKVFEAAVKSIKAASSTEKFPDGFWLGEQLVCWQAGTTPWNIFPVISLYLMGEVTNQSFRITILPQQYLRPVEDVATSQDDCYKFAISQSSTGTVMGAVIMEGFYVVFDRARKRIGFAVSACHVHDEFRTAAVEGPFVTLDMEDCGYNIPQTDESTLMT
# Assay: SPR (Biacore)
row,Binder,Kd [nM]
1,B4,2.07
2,B5,4.25
3,B6,2.76
4,B7,3.22
5,B8,2.97
6,B9,6.41
7,B10,3.29

# Target: T1, murine BACE1 ECD
# Assay: Octet, pH 5.0
# Remark: another data set of the same source
row,Binder,Kd [nM]
1,B4,0.82
2,B5,2
3,B6,0.73
4,B7,0.79
5,B8,1.1
6,B9,< 0.29
7,B10,1.1

# Target: T2, human BACE1 ECD
# Assay: Octet, pH 5.0
# Remark: another data set of the same source
row,Binder,Kd [nM]
1,B4,0.82
2,B5,1.8
3,B6,0.38
4,B7,0.64
5,B8,0.39
6,B9,< 0.23
7,B10,0.96
